How the values were obtained:
[1] = system: ciliary function in epithelial cell cultures; details: cited from earlier work
[2] = Bioavailability of nasal interferon-α in healthy male volunteers versus subcutaneous administration; format: in vivo, human; details: for Cmax: 3 MIU, SC, human plasma
From the text: The present example provides a non-blinded study to determine the uptake of intranasally administered interferon-α in combination with one or more intranasal delivery-enhancing agents into the blood serum in healthy male volunteers.
Twelve healthy male subjects are enrolled in the step and each receives all 3 test product in a cross over fashion.
Each receive all 3 test products.
The protocol involved three doses of the same test product in a dose escalation manner.
The absorption and tolerance results of all products tested were tabulated and analyzed for Cmax, Tmax, and bioavailability (Area under concentration curve, AUC).
For nasal and injectable preparations in Protocols 1 and 2, 7 mL blood samples were drawn at 0 (prior to dose), 10, 20, 30, 45, 60, 75, 90, 120, 180, 240, 360, and 480 minutes post dosing into appropriate vacutainers.
The blood samples were centrifuged and the serum assayed for drug concentration using ELISA Method.
This is a single dose, parallel group study to evaluate absorption, tolerance and pharmacodynamic parameters of Interferon-α-2b by two routes of administration: subcutaneous and intranasally. The study involves twelve healthy male subjects randomly assigned six per group (6 subjects subcutaneous and 6 intranasal). The objective of the study is to evaluate the absorption, tolerance and pharmacodynamic parameters of intranasal administration of Interferon-α-2b by formulations of the present invention versus subcutaneous administration of interferon-α-2b (IntronA®, Schering, Corp.).
When receiving the intranasal dosage formulations, the subjects were seated and instructed to gently blow their nose before dosing. During dosing, the other nostril must be closed with the forefinger. They were also instructed to tilt their heads slightly back for dosing and to return their heads to an upright position while sniffing in gently immediately following dosing. Subjects must avoid additional sniffing and must remain in a seated position with head upright for 5 minutes after dosing. […]
Serum drug concentrations were measured using a suitable analytical method. […]

[3] = system: EpiAirway™ Cell Membrane (mucosal epithelial cell layer); experiment: Permeation kinetics of interferon-α-2b measured by ELISA assay; details: Table 9
Description: (§1) The epithelial cells are grown on porous membrane-bottomed cell culture inserts at an air-liquid interface, which results in differentiation of the cells to a highly polarized morphology. […] The inserts have a diameter of 0.875 cm, providing a surface area of 0.6 cm^2.
(§2) A. On arrival, the units are placed onto sterile supports in 6-well microplates. Each well receives 5 mL of proprietary culture medium. This DMEM-based medium is serum free but is supplemented with epidermal growth factor and other factors. The medium is always tested for endogenous levels of any cytokine or growth factor which is being considered for intranasal delivery, but has been free of all cytokines and factors studied to date except insulin. The 5 mL volume is just sufficient to provide contact to the bottoms of the units on their stands, but the apical surface of the epithelium is allowed to remain in direct contact with air. Sterile tweezers are used in this step and in all subsequent steps involving transfer of units to liquid-containing wells to ensure that no air is trapped between the bottoms of the units and the medium.
(§3) B. The units in their plates are maintained at 37° C. in an incubator in an atmosphere of 5% CO2 in air for 24 hours. At the end of this time the medium is replaced with fresh medium and the units are returned to the incubator for another 24 hours.
(§4) A. A “kit” of 24 EpiAirway units can routinely be employed for evaluating five different formulations, each of which is applied to quadruplicate wells. Each well is employed for determination of permeation kinetics (4 time points), transepithelial resistance, mitochondrial reductase activity as measured by MTT reduction, and cytolysis as measured by release of LDH. An additional set of wells is employed as controls, which are sham treated during determination of permeation kinetics, but are otherwise handled identically to the test sample-containing units for determinations of transepithelial resistance and viability.
(§5) B. In all experiments, the mucosal delivery formulation to be studied is applied to the apical surface of each unit in a volume of 100 μL, which is sufficient to cover the entire apical surface. An appropriate volume of the test formulation at the concentration applied to the apical surface (no more than 100 μL is generally needed) is set aside for subsequent determination of concentration of the active material by ELISA or other designated assay.
(§6) D. In order to minimize potential sources of error and avoid any formation of concentration gradients, the units are transferred from one 0.9 mL-containing well to another at each time point in the study. These transfers are made at the following time points, based on a zero time at which the 100 αL volume of test material was applied to the apical surface: 15 minutes, 30 minutes, 60 minutes, and 120 minutes.
(§7) E. In between time points the units in their plates are kept in the 37° C. incubator. Plates containing 0.9 mL medium per well are also maintained in the incubator so that minimal change in temperature occurs during the brief periods when the plates are removed and the units are transferred from one well to another using sterile forceps.

[4] = system: EpiAirway™ Cell Membrane (mucosal epithelial cell layer)
Description: as §1, §2, §3, §4, §5, §6, §7

EpiAirway cell membrane = format: cell-based; details: Table 11
From the text: While measurement of mitochondrial reductase activity by MTT reduction is a sensitive probe of cell viability, the assay necessarily destroys the cells and therefore can be carried out only at the end of each study. When cells undergo necrotic lysis, their cytotosolic contents are spilled into the surrounding medium, and cytosolic enzymes such as lactic dehydrogenase (LDH) can be detected in this medium. An assay for LDH in the medium can be performed on samples of medium removed at each time point of the two-hour determination of permeation kinetics.
A. The recommended LDH assay for evaluating cytolysis of the EpiAirway units is based on conversion of lactate to pyruvate with generation of NADH from NAD. The NADH is then reoxidized along with simultaneous reduction of the tetrazolium salt INT, catalyzed by a crude “diaphorase” preparation. The formazan formed from reduction of INT is soluble, so that the entire assay for LDH activity can be carried out in a homogenous aqueous medium containing lactate, NAD, diaphorase, and INT.
B. The assay for LDH activity is carried out on 50 μL aliquots from samples of “supernatant” medium surrounding an EpiAirway unit and collected at each time point. These samples were either stored for no longer than 24 h in the refrigerator or were thawed after being frozen within a few hours after collection. Each EpiAirway unit generates samples of supernatant medium collected at 15 min, 30 min, 1 h, and 2 h after application of the test material. The aliquots are all transferred to a 96 well microplate.
C. A 50 μL aliquot of medium which had not been exposed to a unit serves as a “blank” or negative control of 0% cytotoxicity. […] Thus, within experimental error, these sham-treated units show no cytolysis of the epithelial cells over the time course of the permeation kinetics measurements.
D. To prepare a sample of supernatant medium reflecting the level of LDH released after 100% of the cells in a unit have lysed, a unit which had not been subjected to any prior manipulations is added to a well of a 6-well microplate containing 0.9 mL of medium as in the protocol for determination of permeation kinetics, the plate containing the unit is frozen at −80° C., and the contents of the well are then allowed to thaw. This freeze-thaw cycle effectively lyses the cells and releases their cytosolic contents, including LDH, into the supernatant medium. A 50 μL aliquot of the medium from the frozen and thawed cells is added to the 96-well plate as a positive control reflecting 100% cytotoxicity.
E. To each well containing an aliquot of supernatant medium, a 50 μL aliquot of the LDH assay reagent is added. The plate is then incubated for 30 minutes in the dark.
F. The reactions are terminated by addition of a “stop” solution of 1 M acetic acid, and within one hour of addition of the stop solution, the absorbance of the plate is determined at 490 nm.
G. Computation of percent cytolysis is based on the assumption of a linear relationship between absorbance and cytolysis, with the absorbance obtained from the medium alone serving as a reference for 0% cytolysis and the absorbance obtained from the medium surrounding a frozen and thawed unit serving as a reference for 100% cytolysis.

Row | Substance | concentration producing ciliostasis / inhibiting ciliary motility [1] [µg/mL] | Cmax ([2]; 0 to 3 hour) [IU/mL] | Cmax ([2]; 0 to 4 hour) [IU/mL] | maximum concentration of interferon-α in the blood serum (Cmax) ([2]; subcutaneous, 3 MIU dose, at 3 hours post dosing) [IU/mL] | % Permeated at Time-intervals (min), 0 min ([3]; 0 min) [%] | % Permeated at Time-intervals (min), 15 min ([3]; 15 min) [%] | % Permeated at Time-intervals (min), 30 min ([3]; 30 min) [%] | % Permeated at Time-intervals (min), 60 min ([3]; 60 min) [%] | % Permeated at Time-intervals (min), 120 min ([3]; 120 min) [%] | Fold Increase [4] [fold] | % Dead Cells at Time-Intervals (min), 0 (EpiAirway cell membrane; 0 min) [%] | % Dead Cells at Time-Intervals (min), 15 (EpiAirway cell membrane; 15 min) [%] | % Dead Cells at Time-Intervals (min), 30 (EpiAirway cell membrane; 30 min) [%] | % Dead Cells at Time-Intervals (min), 60 (EpiAirway cell membrane; 60 min) [%] | % Dead Cells at Time-Intervals (min), 120 (EpiAirway cell membrane; 120 min) [%]
1 | 2-alkyl-4-hydroxyquinolines [pyo compound] | 50 | – | – | – | – | – | – | – | – | – | – | – | – | – | –
2 | interferon α-2b [Intron A] | – | 4.0 | 6.8 | 4.0 | 0 | 0.000 | 0.003 | 0.011 | 0.022 | 1 | 0 | 0.84 | 0.93 | 1.65 | 4.27
